{"source": "patent US8008452B2", "about": "“Phosphorylated Ndr kinase” (Novartis Forschungesstiftung, Zweigniederlassung Friedrich …, priority 2002, dated 2011)", "key": {"[1]": {"test_system": "GST-NDR1", "assay": "GST-NDR1 kinase assay (peptide kinase assay)", "type": "biochemical, human", "set-up": "Specific activity of GST-NDR1 variants, CTRL / Specific activity of GST-NDR1 variants, −S100B / Specific activity of GST-NDR1 variants, +S100B: unit not given here", "protocol": "1 microgram of purified recombinant GST-NDR1 wild type and mutants (without further treatment or autophosphorylated for 2 h in the presence or absence of 1 mM CaCl2 and […] (Sigma)) were assayed in 20 microliter of reaction mixture containing 20 mM Tris-HCl pH 7.5, 10 mM MgCl2, 1 mM DTT, 100 microM [gamma-^32P]ATP (˜0.5 microCi/microliter), and 1 mM NDR1 substrate peptide ([…]; SEQ ID NO:22). After 30 mins incubation at 30° C., reactions were stopped with 50 mM EDTA, and 10 microliters of reaction mixture were spotted onto 2 cm^2 squares of P81 phosphocellulose paper (Whatman). These were subsequently washed for 4×5 min and 3×20 min in 1% phosphoric acid and once in acetone before counting in a liquid scintillation counter. One unit of NDR1 activity was defined as the amount which catalyses the phosphorylation of 1 nmol peptide substrate in 1 min.\nSpecific activity of GST-NDR1 mutants was also measured by a peptide kinase assay as described above. For this purpose, 1 microgram of purified GST-NDR1 wild type and alanine mutants were left without further treatment or autophosphorylated for 2 h in the presence or absence of 1 mM CaCl2 and […]."}, "[2]": {"molecular_target": "T1, GST-NDR1 (Homo sapiens, UniProt Q15208)", "T1 construct": "made in house; host or cells: E. coli BL21-DE3-pRep4", "T1 sequence (Q15208 2-465)": "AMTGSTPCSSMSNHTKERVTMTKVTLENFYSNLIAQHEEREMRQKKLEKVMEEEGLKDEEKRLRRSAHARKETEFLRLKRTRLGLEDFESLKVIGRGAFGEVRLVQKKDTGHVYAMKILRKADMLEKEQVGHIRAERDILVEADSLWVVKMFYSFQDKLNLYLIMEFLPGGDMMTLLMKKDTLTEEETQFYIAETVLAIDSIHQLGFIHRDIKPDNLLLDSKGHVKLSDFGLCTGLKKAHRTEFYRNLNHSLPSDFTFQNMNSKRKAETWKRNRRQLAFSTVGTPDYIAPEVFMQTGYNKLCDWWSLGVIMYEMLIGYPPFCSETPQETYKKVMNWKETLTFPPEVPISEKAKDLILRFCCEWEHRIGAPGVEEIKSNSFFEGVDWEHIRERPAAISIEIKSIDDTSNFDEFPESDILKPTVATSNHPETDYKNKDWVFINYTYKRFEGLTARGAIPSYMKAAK", "assay": "GST-NDR1 in vitro autophosphorylation, incorporated 32P by Cerenkov counting", "type": "biochemical", "conditions": "in vitro", "protocol": "(§1) BL21-DE3-pRep4 E. coli strain was transformed with the pGEX-2T_NDR1 wild type or mutant plasmids. BL21-DE3 is a protease-deficient E. coli strain and pRep4 is a Laclq repressor-bearing plasmid both available commercially. Optionally, if desired, an E. coli strain comprising GroESL can be used, which expresses a chaperone protein that stabilizes the kinase. Mid-logarithmic phase cells were induced with 0.5 mM isopropyl beta-D-thiogalactopyranoside (IPTG) for 4 hours at 30° C. Bacteria were lysed using a French press in the presence of 1 mg/ml lysosyme, and the fusion proteins were purified on glutathione-agarose (Amersham Pharmacia Biotech) as described by the manufacturers. Recombinant proteins were assayed for kinase activity as described below and autophosphorylation was determined after SDS-PAGE separation either by Cerenkov counting or by exposure to a PhosphorImager screen followed by analysis with ImageQuant software (Molecular Dynamics).\n(§2) In brief, 1 microgram of purified GST-NDR1 (in solution ˜0.5 microM) wild type, kinase dead (K118A), and alanine mutants of phosphorylation residues Thr74, Ser281, and Thr444 were autophosphorylated for 2 hours in vitro without further additions or in the presence of 1 mM CaCl2 and 10 microM bovine S100B. Proteins were visualized on SDS gels using Coomassie Blue R-350 stained SDS-PAGE gel, and [gamma-^32P]ATP-labelled proteins were visualized by autoradiography of the gels developed on a Phosphorimager screen. The amount of incorporated ^32P was quantified by Cerenkov counting."}, "[3]": {"test_system": "GST-NDR1", "assay": "GST-NDR1 in vitro autophosphorylation, incorporated 32P by Cerenkov counting", "type": "biochemical, human", "conditions": "GST-NDR1 variant", "protocol": "as §1, §2"}, "[4]": {"test_system": "HA-NDR1", "assay": "HA-NDR1 kinase assay on 12CA5 immunoprecipitates from transfected, treated COS-1 cells", "type": "cell-based, human", "set-up": "kinase activity of HA-NDR1 variants, −OA: unit not given here", "conditions": "COS-1 cells", "protocol": "In some experiments, the cells were treated for 60 min with 1 microM okadaic acid in 0.1% N,N-dimethylformamide (DMF) (Alexis Corp.), 50 microM BAPTA-AM (1,2-bis (o-aminophenoxy) ethane-N,N,N′,N′-tetraacetic acid tetra (acetoxy-methyl)ester) in 0.1% diimethylsulfoxide (DMSO; Sigma), or 20 microM thapsigargin in 0.1% DMSO (Alomone) 24 hours after transfection.\nTransfected and treated COS-1 cells were washed once with ice-cold PBS, and harvested by rubber policeman in 1 ml ice-cold PBS containing 1 mM Na3VO4 and 20 mM beta-glycerophosphate before lysis in 500 microliters of IP buffer (20 mM Tris-HCl pH 8.0, 150 mM NaCl, 1% Nonidet P-40, 10% glycerol, 1 mM Na3VO4, 20 mM beta-glycerolphosphate, 1 microM microcystin-LR, 50 mM NaF, 0.5 mM PMSF, 4 microM leupeptin, 1 mM benzamidine, and 1 tablet/10 ml IP of Complete protease inhibitors (Roche)). Lysates were centrifuged at 20 000 g for 20 min and triplicate aliquots (200 microg) of supernatant were precleared with protein A-Sepharose (Amersham Pharmacia Biotech) for 60 min and mixed subsequently for 3 h at 4° C. with 12CA5 antibody prebound to protein A-Sepharose (˜1 microg antibody bound to 2 microl beads). The beads were then washed twice with IP buffer, once for 10 min with IP buffer containing 1 M NaCl, once again for 10 min with IP buffer, and finally twice with 20 mM Tris-HCl pH 7.5 containing 4 microM leupeptin and 1 mM benzamidine. Thereafter, beads were resuspended in 30 microliters buffer containing 20 mM Tris-HCl pH 7.5, 10 mM MgCl2, 1 mM DTT, 100 microM [gamma-^32P]ATP (˜0.1 microCi/microliter), 1 microM cAMP-dependent protein kinase inhibitor peptide PKI (Bachem), 4 microM leupeptin, 1 mM benzamidine, 1 microM microcystin-LR, and 1 mM NDR1 substrate peptide ([…]). After 60 min incubation at 30° C., 15 microliters of supernatant were removed, and phosphate incorporation into the substrate peptide determined as described for GST-NDR1 above.\nCOS-1 cells expressing either wild type HA-NDR1 or the indicated mutants were treated for 1 h with 1 microM okadaic acid or with solvent alone. HA-tagged NDR kinase variants were then immunoprecipitated (out of 100 microgram of detergent extracts) with 12CA5 monoclonal antibody and assayed for kinase activity by a peptide kinase assay as described above.\nMock-transfected or HA-NDR1-expressing COS-1 cells were treated for 1 h with […], 50 microM BAPTA-AM, and […] or with solvent (0.1% DMF or 0.1% DMSO) alone. 12CA5 immunoprecipitates (out of 100 microgram protein extract) were then assayed using the peptide kinase assay for NDR1 kinase activity.\nTo test whether hMOB1 plays a role in NDR activation, myc-hMOB1 or the empty vector was cotransfected with HA-NDR1 in COS1 cells and treated with OA. 12CA5 immunoprecipitates were then assayed using the peptide kinase assay for HA-NDR kinase activity. […] GST-MOB and GST respectively was added to immunoprecipitated HA-NDR and kinase reaction were performed. The reactions were resolved on a 10% SDS PAGE and the radioactivity visualised by using a phosphoimager."}}, "data": [{"substance": "WT: human NDR1 wild type; GST fusion in the 2nd table, the 3rd table, HA-tagged in the 4th table", "values": [{"measurement": "Specific activity of GST-NDR1 variants, −S100B", "setting": "[1]; autophosphorylated 2 h in the absence of CaCl2 and S100B", "value": 4.106}, {"measurement": "Specific activity of GST-NDR1 variants, +S100B", "setting": "[1]; autophosphorylated 2 h in the presence of 1 mM CaCl2 and 10 mM bovine S100B", "value": 21.348}, {"measurement": "Specific activity of GST-NDR1 variants, CTRL", "setting": "[1]; left without further treatment", "value": 1}, {"measurement": "autophosphorylation of wild-type GST-NDR1 in vitro", "setting": "[2]", "value": "up to 0.4 pmol ATP/pmol GST-NDR1"}, {"measurement": "amount of incorporated 32P (autophosphorylation), −S100B", "setting": "[3]; 1 microgram, autophosphorylated 2 hours without further additions, pmol ATP/pmol GST-NDR1", "value": 0.1688}, {"measurement": "amount of incorporated 32P (autophosphorylation), +S100B", "setting": "[3]; 2 hours in the presence of 1 mM CaCl2 and 10 microM bovine S100B, in pmol ATP/pmol GST-NDR1", "value": 0.3512}, {"measurement": "kinase activity of HA-NDR1 variants, +OA", "setting": "[4]; 1 microM okadaic acid 1 h", "value": 10.8852}, {"measurement": "kinase activity of HA-NDR1 variants, −OA", "setting": "[4]; solvent alone 1 h", "value": 0.3532}]}]}
